Test results as given in article PMC4738012 (Journal of molecular biology, 2015).

Tests used:
Assay in all cases: flow cytometry on cells
[1] = target: PIGQ peptide … on HLA-A*02:01 of peptide-pulsed T2 cells (Homo sapiens, HLA-A*02:01 (T2 cells))
[2] = target: RMF peptide on HLA-A*02 of peptide-pulsed T2 cells (Homo sapiens, HLA-A*02:01, strain)
[3] = target: MED13L peptide … on HLA-A*02:01 of peptide-pulsed T2 cells (Homo sapiens, HLA-A*02:01 (T2 cells))

Measured: binding result

B1: ESK1 full-length human IgG1 antibody (antibody, V domains shown)
VH: QMQLVQSGAEVKEPGESLRISCKGSGYSFTNFWISWVRQMPGKGLEWMGRVDPGYSYSTYSPSFQGHVTISADKSTSTAYLQWNSLKASDTAMYYCARVQYSGYYDWFDPWGQGTLVTVSS
VL: not shown
binds: all assays above
